Assay results published in JP2015180626A (dated 2015).

Target: RSV Fタンパク質 (RSV A2ウイルス) (respiratory syncytial virus (RSV) A2, UniProt P03420 26-574)
Assay: cell-based or functional assay

Sequence of RSV Fタンパク質 (RSV A2ウイルス) (P03420 26-574): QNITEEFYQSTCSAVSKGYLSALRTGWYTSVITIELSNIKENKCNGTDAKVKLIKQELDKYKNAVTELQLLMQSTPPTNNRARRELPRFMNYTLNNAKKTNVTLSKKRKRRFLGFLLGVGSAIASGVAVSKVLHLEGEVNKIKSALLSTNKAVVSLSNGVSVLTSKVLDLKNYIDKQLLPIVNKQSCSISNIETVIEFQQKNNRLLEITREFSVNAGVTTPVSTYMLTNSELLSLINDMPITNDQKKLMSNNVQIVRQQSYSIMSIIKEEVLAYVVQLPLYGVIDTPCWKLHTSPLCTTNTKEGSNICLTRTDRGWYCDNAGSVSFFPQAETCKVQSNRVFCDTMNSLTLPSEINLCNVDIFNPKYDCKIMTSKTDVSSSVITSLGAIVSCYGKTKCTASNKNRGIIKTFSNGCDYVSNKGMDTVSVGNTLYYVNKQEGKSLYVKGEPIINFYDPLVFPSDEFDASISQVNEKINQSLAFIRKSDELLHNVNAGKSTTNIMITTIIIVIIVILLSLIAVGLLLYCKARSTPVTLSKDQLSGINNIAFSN

B1: AM22 (antibody, V domains shown)
VH: QVQLVQSGAEVKKPGATVKVSCKISGHTLIKLSIHWVRQAPGKGLEWMGGYEGEVDEIFYAQKFQHRLTVIADTATDTVYMELGRLTSDDTAVYFCGTLGVTVTEAGLGIDDYWGQGTLVTVSS
VL: EIVLTQSPGTLSLSPGERATLSCRASQIVSRNHLAWYQQKPGQAPRLLIFGASSRATGIPVRFSGSGSGTDFTLTINGLAPEDFAVYYCLSSDSSIFTFGPGTKVDFK
RSV-A2ウイルスに対する中央値半分最大阻害濃度(IC 50 ) (neutralisation of RSV A2 on HEp2 cells): 1.15 ng/mL
